Data: article PMC3994269
Values joined by “and” are separate entries in the source; they are usually repeats but may differ in a detail not shown here. Equal values may be shown once.

How the values were obtained:
[1] = biological target: Plasmodium falciparum heat shock factor binding protein (PfHSBP), endogenous (P. falciparum (endogenous in 3D7 parasites)) (UniProt Q8IIF8); test: SEC; P. falciparum lysate on Superdex 200 10/300 GL in PBS; fractions immunoblotted for PfHSBP
[2] = biological target: Plasmodium falciparum heat shock factor binding protein (PfHSBP), endogenous (P. falciparum (endogenous in 3D7 parasites)) (UniProt Q8IIF8); test: SDS-PAGE and immunoblot (SDS-resistant oligomers); P. falciparum lysate resolved on SDS-PAGE and probed with anti-PfHSBP antiserum; pre-immune serum as control
[3] = biological target: Plasmodium falciparum heat shock factor binding protein (PfHSBP), endogenous (P. falciparum (endogenous in 3D7 parasites)) (UniProt Q8IIF8); test: immunoprecipitation, SDS-PAGE and phosphorimaging; lysate of [35S]-labelled P. falciparum (1% Triton X-100); anti-PfHSBP antiserum 1:25 at 4°C for 12 hours, Protein G beads; Protein G and pre-immune serum controls

stoichiometry N [1]: 6 | stoichiometry N [2]: 3 and 6 | stoichiometry N [3]: 6
Substance: Plasmodium falciparum heat shock factor binding protein (PfHSBP), endogenous (from UniProt Q8IIF8 1-113) (natural protein)
